US20210032365A1 (Chugai, published 2021)

T1: human C1s (human, UniProt P09871 16-688)
T1 construct: Analyte in the Biacore assays; also called hC1s; serum-derived human C1s (CompTech)
T1 sequence: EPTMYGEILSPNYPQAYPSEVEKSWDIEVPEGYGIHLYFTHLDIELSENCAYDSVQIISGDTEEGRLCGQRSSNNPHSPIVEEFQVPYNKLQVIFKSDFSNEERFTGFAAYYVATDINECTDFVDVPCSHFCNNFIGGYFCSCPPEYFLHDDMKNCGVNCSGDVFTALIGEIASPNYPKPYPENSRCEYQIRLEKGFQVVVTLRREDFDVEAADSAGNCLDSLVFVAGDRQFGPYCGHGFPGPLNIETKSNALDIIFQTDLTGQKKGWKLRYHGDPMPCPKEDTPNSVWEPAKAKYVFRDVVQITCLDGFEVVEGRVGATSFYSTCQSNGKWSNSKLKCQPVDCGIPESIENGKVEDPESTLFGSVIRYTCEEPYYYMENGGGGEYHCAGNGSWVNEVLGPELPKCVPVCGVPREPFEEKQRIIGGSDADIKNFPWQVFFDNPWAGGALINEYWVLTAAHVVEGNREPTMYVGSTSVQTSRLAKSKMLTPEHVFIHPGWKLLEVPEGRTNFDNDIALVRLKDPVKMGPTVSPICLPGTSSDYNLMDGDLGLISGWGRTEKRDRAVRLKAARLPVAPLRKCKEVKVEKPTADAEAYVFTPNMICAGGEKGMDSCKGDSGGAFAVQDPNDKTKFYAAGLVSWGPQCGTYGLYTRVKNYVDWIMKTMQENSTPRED


Tests used:
human C1s [1] = target: T1, human C1s; assay: SPR; KD at pH 5.8 (1.2 mM Ca) over KD at pH 7.4 (1.2 mM Ca)
Protocol: (§1) Each antibody was captured onto the sensor surface by protein A/G. Antibody capture levels were aimed at 200 resonance unit (RU). Serum-derived human C1s (CompTech) or recombinant C1s prepared in EXAMPLE 1 was injected at 50 nM, followed by dissociation. The sensor surface was regenerated in each cycle with 10 mM Glycine-HCl, pH 1.5. […] The ratio of KD 5.8+ to KD 7.4+(“KD 5+/7+”) and that of KD 5.8− to KD 7.4+(“KD 5−/7+”) were calculated. When the KD 5+/7+ or KD 5−/7+ of a variant is larger than that of the parent antibody IPN009VH2-SG4GK/IPN009VK3-SK1, that variant is considered to be “pH”- or “pH and Ca”-dependent, respectively. When binding response in 5(+) buffer and/or in 5(−) buffer of a variant is much lower than that of IPN09VH2/IPN009VK3, that variant is also considered as “pH”- and/or “pH and Ca”-dependent. Therefore, such mutations are effective to generate “pH”- and/or “pH and Ca”-dependent antibody. To further enhance “pH” and/or “pH and Ca” dependency, a combination of histidine mutations was conducted. Antibodies with combinations of histidine mutations were evaluated using Biacore by the method described above.
(§2) C1_1IPN92H0033 (SEQ ID NO: 17)-SG4GK/IPN93L0024 (SEQ ID NO: 18)-SK1 (IPN92H0033/IPN93L0024) was selected for further optimization. Histidine, Lysine, Arginine, aspartic acid, glutamic acid, and glutamine scanning was conducted for CDRs and certain positions of FRs of IPN92H0033/IPN93L0024. Variants with a mutation were generated and purified, and evaluated using Biacore by the method mentioned above. All variants were evaluated using Biacore as mentioned above. Mutations that improved “pH” and/or “pH and Ca” dependency were selected for the combination.

human C1s [2] = target: T1, human C1s; assay: SPR (Biacore T200, 37C), Ab captured on protein A/G; pH 5.8, 1.2 mM Ca
Protocol: as §1, §2

human C1s [3] = target: T1, human C1s; assay: SPR; KD at pH 5.8 (3 uM Ca) over KD at pH 7.4 (1.2 mM Ca)
Protocol: as §1, §2

human C1s [4] = target: T1, human C1s; assay: SPR (Biacore T200, 37C), Ab captured on protein A/G; pH 5.8, 3 uM Ca
Protocol: as §1, §2

Binder | KD 5(+)/7(+) (human C1s [1]) | Kd (human C1s [2]) [nM] | koff (human C1s [2]) [s⁻¹] | kon (human C1s [2]) [M⁻¹ s⁻¹] | KD 5(-)/7(+) (human C1s [3]) | Kd (human C1s [4]) [nM] | koff (human C1s [4]) [s⁻¹] | kon (human C1s [4]) [M⁻¹ s⁻¹]
C1_IPN92H0079-SG4GK/IPN93L0024-SK1 (antibody, human IgG4 S228P, kappa, name in Kabat numbering, V domains shown, Substitutions from IPN009VH2, Kabat numbering; also called IPN92H0079/IPN93L0024) VH: EVMLVESGGGLVKPGGSLRLSCAASGFTFSNKAMSWVRQAPGKGLEWVATISSGGSHTYYLDSVKGRFTISRDNSKDTLYLQMNSLRAEDTALYYCARLFTGHAMDYWGQGTLVTVSS VL: QIVLTQSPATLSLSPGERATLSCTASSSVSSSYLHWYQQKPGKAPKLWIYSTSNLASGVPSRFSGSGSGTDYTLTISSLQPEDFATYYCHQYYRLHPITFGQGTKLEIKR | 5.7 | 19.3 | 0.0162 | 838000 | 2.6 | 8.75 | 0.0052 | 594000
C1_IPN92H0144-SG4GK/IPN93L0024-SK1 (antibody, human IgG4 S228P, kappa, name in Kabat numbering, V domains shown, Substitutions from IPN009VH2, Kabat numbering; also called IPN92H0144/IPN93L0024) VH: EVMLVESGGGLVKPGGSLRLSCAASGFTFSNYAMSWVRQAPGKGLEWVATISSGGSKTYYLDSVKGRFTISRDNSKDTLYLQMNSLRAEDTALYYCARLFTGHAMDYWGQGTLVTVSS VL: QIVLTQSPATLSLSPGERATLSCTASSSVSSSYLHWYQQKPGKAPKLWIYSTSNLASGVPSRFSGSGSGTDYTLTISSLQPEDFATYYCHQYYRLHPITFGQGTKLEIKR | 6.4 | 23.4 | 0.0265 | 1.13e+06 | 1.54 | 5.65 | 0.00317 | 562000
C1_IPN92H0117-SG4GK/IPN93L0024-SK1 (antibody, human IgG4 S228P, kappa, name in Kabat numbering, V domains shown, Substitutions from IPN009VH2, Kabat numbering; also called IPN92H0117/IPN93L0024) VH: EVMLVESGGGLVKPGGSLRLSCAASGFTFSNYAMSWVRQAPGKGLEWVATISQGGSHTYYLDSVKGRFTISRDNSKDTLYLQMNSLRAEDTALYYCARLFTGHAMDYWGQGTLVTVSS VL: QIVLTQSPATLSLSPGERATLSCTASSSVSSSYLHWYQQKPGKAPKLWIYSTSNLASGVPSRFSGSGSGTDYTLTISSLQPEDFATYYCHQYYRLHPITFGQGTKLEIKR | 3.8 | 13.1 | 0.00799 | 610000 | 2.26 | 7.71 | 0.00542 | 703000
C1_IPN92H0156-SG4GK/IPN93L0024-SK1 (antibody, human IgG4 S228P, kappa, name in Kabat numbering, V domains shown, Substitutions from IPN009VH2, Kabat numbering; also called IPN92H0156/IPN93L0024) VH: EVMLVESGGGLVKPGGSLRLSCAASGFTFSNYAMSWVRQAPGKGLEWVATISSGGSHTKYLDSVKGRFTISRDNSKDTLYLQMNSLRAEDTALYYCARLFTGHAMDYWGQGTLVTVSS VL: QIVLTQSPATLSLSPGERATLSCTASSSVSSSYLHWYQQKPGKAPKLWIYSTSNLASGVPSRFSGSGSGTDYTLTISSLQPEDFATYYCHQYYRLHPITFGQGTKLEIKR | 7 | 14.8 | 0.00948 | 641000 | 4.62 | 9.8 | 0.00632 | 645000
C1_IPN92H0145-SG4GK/IPN93L0024-SK1 (antibody, human IgG4 S228P, kappa, name in Kabat numbering, V domains shown, Substitutions from IPN009VH2, Kabat numbering; also called IPN92H0145/IPN93L0024) VH: EVMLVESGGGLVKPGGSLRLSCAASGFTFSNYAMSWVRQAPGKGLEWVATISSGGSRTYYLDSVKGRFTISRDNSKDTLYLQMNSLRAEDTALYYCARLFTGHAMDYWGQGTLVTVSS VL: QIVLTQSPATLSLSPGERATLSCTASSSVSSSYLHWYQQKPGKAPKLWIYSTSNLASGVPSRFSGSGSGTDYTLTISSLQPEDFATYYCHQYYRLHPITFGQGTKLEIKR | 4.1 | 19.2 | 0.0496 | 2.58e+06 | 1.36 | 6.4 | 0.003 | 469000
C1_IPN92H0147-SG4GK/IPN93L0024-SK1 (antibody, human IgG4 S228P, kappa, name in Kabat numbering, V domains shown, Substitutions from IPN009VH2, Kabat numbering; also called IPN92H0147/IPN93L0024) VH: EVMLVESGGGLVKPGGSLRLSCAASGFTFSNYAMSWVRQAPGKGLEWVATISSGGSHDYYLDSVKGRFTISRDNSKDTLYLQMNSLRAEDTALYYCARLFTGHAMDYWGQGTLVTVSS VL: QIVLTQSPATLSLSPGERATLSCTASSSVSSSYLHWYQQKPGKAPKLWIYSTSNLASGVPSRFSGSGSGTDYTLTISSLQPEDFATYYCHQYYRLHPITFGQGTKLEIKR | 6.4 | 13.2 | 0.00589 | 445000 | 1.58 | 3.23 |  | 
C1_IPN92H0160-SG4GK/IPN93L0024-SK1 (antibody, human IgG4 S228P, kappa, name in Kabat numbering, V domains shown, Substitutions from IPN009VH2, Kabat numbering; also called IPN92H0160/IPN93L0024) VH: EVMLVESGGGLVKPGGSLRLSCAASGFTFSNYAMSWVRQAPGKGLEWVATISSGGSHTYELDSVKGRFTISRDNSKDTLYLQMNSLRAEDTALYYCARLFTGHAMDYWGQGTLVTVSS VL: QIVLTQSPATLSLSPGERATLSCTASSSVSSSYLHWYQQKPGKAPKLWIYSTSNLASGVPSRFSGSGSGTDYTLTISSLQPEDFATYYCHQYYRLHPITFGQGTKLEIKR | 9 | 13.7 | 0.00634 | 461000 | 4.82 | 7.32 | 0.00411 | 562000
C1_IPN92H0080-SG4GK/IPN93L0024-SK1 (antibody, human IgG4 S228P, kappa, name in Kabat numbering, V domains shown, Substitutions from IPN009VH2, Kabat numbering; also called IPN92H0080/IPN93L0024) VH: EVMLVESGGGLVKPGGSLRLSCAASGFTFSNRAMSWVRQAPGKGLEWVATISSGGSHTYYLDSVKGRFTISRDNSKDTLYLQMNSLRAEDTALYYCARLFTGHAMDYWGQGTLVTVSS VL: QIVLTQSPATLSLSPGERATLSCTASSSVSSSYLHWYQQKPGKAPKLWIYSTSNLASGVPSRFSGSGSGTDYTLTISSLQPEDFATYYCHQYYRLHPITFGQGTKLEIKR | 5 | 15.9 | 0.0129 | 814000 | 2.86 | 9.09 | 0.00651 | 717000
C1_IPN92H0159-SG4GK/IPN93L0024-SK1 (antibody, human IgG4 S228P, kappa, name in Kabat numbering, V domains shown, Substitutions from IPN009VH2, Kabat numbering; also called IPN92H0159/IPN93L0024) VH: EVMLVESGGGLVKPGGSLRLSCAASGFTFSNYAMSWVRQAPGKGLEWVATISSGGSHTYDLDSVKGRFTISRDNSKDTLYLQMNSLRAEDTALYYCARLFTGHAMDYWGQGTLVTVSS VL: QIVLTQSPATLSLSPGERATLSCTASSSVSSSYLHWYQQKPGKAPKLWIYSTSNLASGVPSRFSGSGSGTDYTLTISSLQPEDFATYYCHQYYRLHPITFGQGTKLEIKR | 8.1 | 16.6 | 0.00699 | 421000 | 3.57 | 7.36 | 0.00401 | 544000
C1_IPN92H0091-SG4GK/IPN93L0024-SK1 (antibody, human IgG4 S228P, kappa, name in Kabat numbering, V domains shown, Substitutions from IPN009VH2, Kabat numbering; also called IPN92H0091/IPN93L0024) VH: EVMLVESGGGLVKPGGSLRLSCAASGFTFSNYAKSWVRQAPGKGLEWVATISSGGSHTYYLDSVKGRFTISRDNSKDTLYLQMNSLRAEDTALYYCARLFTGHAMDYWGQGTLVTVSS VL: QIVLTQSPATLSLSPGERATLSCTASSSVSSSYLHWYQQKPGKAPKLWIYSTSNLASGVPSRFSGSGSGTDYTLTISSLQPEDFATYYCHQYYRLHPITFGQGTKLEIKR | 4.5 | 12 | 0.00634 | 530000 | 1.28 | 3.43 | 2.67 | 7.8e+08
C1_IPN92H0157-SG4GK/IPN93L0024-SK1 (antibody, human IgG4 S228P, kappa, name in Kabat numbering, V domains shown, Substitutions from IPN009VH2, Kabat numbering; also called IPN92H0157/IPN93L0024) VH: EVMLVESGGGLVKPGGSLRLSCAASGFTFSNYAMSWVRQAPGKGLEWVATISSGGSHTRYLDSVKGRFTISRDNSKDTLYLQMNSLRAEDTALYYCARLFTGHAMDYWGQGTLVTVSS VL: QIVLTQSPATLSLSPGERATLSCTASSSVSSSYLHWYQQKPGKAPKLWIYSTSNLASGVPSRFSGSGSGTDYTLTISSLQPEDFATYYCHQYYRLHPITFGQGTKLEIKR | 9.3 | 18.8 | 0.012 | 636000 | 5.07 | 10.3 | 0.00583 | 564000
